According to patent US20250313625A1 (ELPISCIENCE SUZHOU BIOPHARMA, published 2025):

T1: hFc tagged human LAG3 D1-D2 recombinant protein (human, UniProt P18627 23-261)
T1 construct: range 23-261; generated by Chempartner; also called hLAG3 D1-D2; not shown: human IgG Fc tag
T1 sequence (looked up): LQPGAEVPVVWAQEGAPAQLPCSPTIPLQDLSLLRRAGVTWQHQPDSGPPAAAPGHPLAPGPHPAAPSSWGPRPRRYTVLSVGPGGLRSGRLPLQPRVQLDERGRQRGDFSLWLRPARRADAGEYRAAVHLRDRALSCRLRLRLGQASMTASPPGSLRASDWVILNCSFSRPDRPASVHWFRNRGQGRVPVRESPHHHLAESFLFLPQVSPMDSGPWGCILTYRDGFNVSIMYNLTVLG

T2: human LAG3, full length, stably expressed on cells (human, UniProt P18627 23-525)
T2 construct: whole, on cells; also called CHOK1-human LAG3
T2 sequence (looked up): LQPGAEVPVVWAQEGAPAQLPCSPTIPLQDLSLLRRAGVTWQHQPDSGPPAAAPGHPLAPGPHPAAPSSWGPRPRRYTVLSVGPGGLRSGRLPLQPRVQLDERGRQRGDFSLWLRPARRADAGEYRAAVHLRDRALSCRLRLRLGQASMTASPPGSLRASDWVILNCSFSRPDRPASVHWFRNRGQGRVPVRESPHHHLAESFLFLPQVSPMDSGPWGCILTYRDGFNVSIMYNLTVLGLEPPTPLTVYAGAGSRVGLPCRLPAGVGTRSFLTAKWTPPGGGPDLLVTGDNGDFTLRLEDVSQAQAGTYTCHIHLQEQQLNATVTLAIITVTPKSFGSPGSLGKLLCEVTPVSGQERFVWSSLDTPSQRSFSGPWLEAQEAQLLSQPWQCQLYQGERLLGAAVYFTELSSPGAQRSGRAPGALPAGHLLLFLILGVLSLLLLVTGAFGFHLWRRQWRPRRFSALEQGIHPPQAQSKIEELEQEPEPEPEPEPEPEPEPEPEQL

T3: mouse LAG3, full length, stably expressed on CHOK1 cells (mouse, UniProt Q61790 24-521)
T3 construct: whole, on cells
T3 sequence (looked up): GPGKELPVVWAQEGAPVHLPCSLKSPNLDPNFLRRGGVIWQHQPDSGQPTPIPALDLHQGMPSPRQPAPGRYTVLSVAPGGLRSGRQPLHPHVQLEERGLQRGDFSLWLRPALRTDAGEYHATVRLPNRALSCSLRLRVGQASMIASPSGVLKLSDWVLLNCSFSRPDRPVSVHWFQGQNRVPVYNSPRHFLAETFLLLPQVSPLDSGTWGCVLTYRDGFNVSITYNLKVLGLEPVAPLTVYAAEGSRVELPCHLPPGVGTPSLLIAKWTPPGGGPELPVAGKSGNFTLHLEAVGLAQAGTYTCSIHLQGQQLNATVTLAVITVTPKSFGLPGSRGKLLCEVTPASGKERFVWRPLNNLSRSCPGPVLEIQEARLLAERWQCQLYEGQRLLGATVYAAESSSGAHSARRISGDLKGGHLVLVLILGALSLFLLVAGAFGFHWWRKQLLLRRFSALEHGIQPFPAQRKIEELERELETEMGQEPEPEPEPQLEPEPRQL

T4: hFc tagged human LAG3 ECD recombinant protein (human, UniProt P18627 23-450)
T4 construct: range 23-450; also called biotin labelled hFc tagged human LAG3 ECD; not shown: human IgG Fc tag
T4 sequence (looked up): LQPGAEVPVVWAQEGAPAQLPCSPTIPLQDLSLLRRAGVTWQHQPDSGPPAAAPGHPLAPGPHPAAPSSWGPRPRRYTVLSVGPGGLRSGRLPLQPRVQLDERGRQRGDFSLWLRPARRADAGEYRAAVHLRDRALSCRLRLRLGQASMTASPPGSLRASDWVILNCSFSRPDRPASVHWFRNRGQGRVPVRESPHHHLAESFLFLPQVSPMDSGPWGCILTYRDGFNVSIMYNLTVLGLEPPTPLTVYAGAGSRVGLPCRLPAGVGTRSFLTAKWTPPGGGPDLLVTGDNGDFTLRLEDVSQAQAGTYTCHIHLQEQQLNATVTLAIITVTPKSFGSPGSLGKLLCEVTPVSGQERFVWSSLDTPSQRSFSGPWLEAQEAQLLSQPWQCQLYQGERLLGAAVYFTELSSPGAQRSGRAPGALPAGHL

T5: mFc tagged human LAG3 ECD recombinant protein (human, UniProt P18627 23-450)
T5 construct: extracellular domain; purchased from Biointron; not shown: mouse IgG Fc (mFc) tag
T5 sequence (looked up): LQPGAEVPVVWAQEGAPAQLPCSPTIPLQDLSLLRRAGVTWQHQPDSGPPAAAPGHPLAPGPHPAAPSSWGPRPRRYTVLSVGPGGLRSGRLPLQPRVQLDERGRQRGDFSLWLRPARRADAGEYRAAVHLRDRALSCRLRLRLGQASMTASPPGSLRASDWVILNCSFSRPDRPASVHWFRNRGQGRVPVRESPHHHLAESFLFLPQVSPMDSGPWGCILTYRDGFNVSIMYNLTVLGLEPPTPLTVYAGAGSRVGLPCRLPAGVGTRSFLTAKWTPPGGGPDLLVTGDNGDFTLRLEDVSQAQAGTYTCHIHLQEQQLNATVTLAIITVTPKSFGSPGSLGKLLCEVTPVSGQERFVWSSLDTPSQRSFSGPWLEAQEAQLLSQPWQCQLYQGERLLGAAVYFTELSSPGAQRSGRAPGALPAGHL

T6: human LAG3 ECD recombinant protein (plate coated, tag not stated) (human, UniProt P18627 23-450)
T6 construct: extracellular domain
T6 sequence (looked up): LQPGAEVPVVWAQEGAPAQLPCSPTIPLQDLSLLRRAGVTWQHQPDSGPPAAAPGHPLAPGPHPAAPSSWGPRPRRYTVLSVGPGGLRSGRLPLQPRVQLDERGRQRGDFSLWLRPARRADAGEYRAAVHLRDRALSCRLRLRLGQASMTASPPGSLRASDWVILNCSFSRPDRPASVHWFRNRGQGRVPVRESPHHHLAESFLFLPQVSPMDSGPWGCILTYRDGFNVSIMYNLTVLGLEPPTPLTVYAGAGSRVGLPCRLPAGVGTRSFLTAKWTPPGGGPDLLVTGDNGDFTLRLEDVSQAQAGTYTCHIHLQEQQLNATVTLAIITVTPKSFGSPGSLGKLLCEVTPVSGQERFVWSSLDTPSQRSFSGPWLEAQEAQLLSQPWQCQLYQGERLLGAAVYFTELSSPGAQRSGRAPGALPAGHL


Assays:
[1] = target: T1, hFc tagged human LAG3 D1-D2 recombinant …; assay: ELISA, coated hFc-hLAG3 D1-D2
Protocol: Binding activity of the purified hybridoma antibodies against human LAG3 was detected by ELISA assay using hFc tagged human LAG3 D1-D2 recombinant protein. Briefly the antibodies were incubated with ELISA microplate coated antigens at 37° C. for 1 hour. After washing, horseradish peroxidase (HRP) labeled anti-human IgG 2nd Ab (Sigma) was added and incubated at 37° C. for 1 hour. Then, 100 μl/well of TMB solution (Biotechnology) was added. After incubation for 15 minutes at room temperature, the reaction was stopped by the addition of 50 μl of 1N HCl. OD 450 nm was read and EC₅₀ was calculated using GraphPad Prism9.0.

[2] = target: T2, human LAG3, full length, stably …; assay: FACS on 293F-human LAG3 cells
Protocol: (§1) Briefly the antibodies were incubated with 2×10⁵ target cells at 4° C. for 1 hour. After washing, fluorescence labeled anti-mouse IgG 2nd antibody (Life Technologies) was added and incubated at 4° C. for 1 hour. Geometric median fluorescence intensity (MFI) was detected and EC₅₀ was calculated using GraphPad Prism9.0.

[3] = target: T3, mouse LAG3, full length, stably …; assay: FACS on CHOK1 cells expressing mouse LAG3
Protocol: as §1

[4] = target: T4, hFc tagged human LAG3 ECD recombinant …; assay: competitive FACS: hFc-LAG3 ECD binding to Raji cells (MHC II)
Protocol: Competitive FACS assay was used to determine whether the purified hybridoma antibodies can block LAG3 and MHC II interaction. […] After washing, dye labeled anti-human Fc 2nd antibody (Sigma) was added and incubated at 37° C. for 1 hour. Fluorescence intensity was detected.

[5] = target: T4, hFc tagged human LAG3 ECD recombinant …; assay: competitive ELISA: excess competitor, biotin hFc-LAG3 ECD, coated BAP-050
Protocol: (§2) Competitive ELISA assay was used for epitope binning of the purified hybridoma antibodies. […] After washing, HRP labeled anti-streptavidin (SA) 2nd antibody (Sigma) was added and incubated at 37° C. for 1 hour. Then, 100 μl/well of TMB solution (Biotechnology) was added. After incubation for 15 minutes at room temperature, the reaction was stopped by the addition of 50 μl of 1N HCl. OD 450 nm was read. Competition ratio was calculated.

[6] = target: T4, hFc tagged human LAG3 ECD recombinant …; assay: competitive ELISA: excess competitor, biotin hFc-LAG3 ECD, coated BMS-986016
Protocol: as §2

[7] = target: T2, human LAG3, full length, stably …; assay: FACS on 293F cells stably expressing human LAG3
Protocol: as §1
MFI was detected and EC₅₀ was calculated using GraphPad Prism9.0.

[8] = target: T5, mFc tagged human LAG3 ECD recombinant …; assay: competitive FACS: mFc-LAG3 ECD binding to Raji cells (MHC II)
Protocol: Activity of the purified chimeric antibodies to block LAG3 and MHC II interaction was determined by competitive FACS assay. […] After washing, dye labeled anti-mouse Fc 2nd antibody (Sigma) was added and incubated at 37° C. for 1 hour. Fluorescence intensity was detected.

[9] = target: T6, human LAG3 ECD recombinant protein …; assay: competitive ELISA format I: His-FGL1 binding to coated LAG3 ECD
Protocol: After washing, HRP labeled anti-His 2nd antibody (Sigma) was added and incubated at 37° C. for 1 hour. Then, 100 μl/well of TMB solution (Biotechnology) was added. After incubation for 15 minutes at room temperature, the reaction was stopped by the addition of 50 μl of 1N HCl. OD 450 nm was read. […] After washing, HRP labeled anti-SA 2nd antibody (Sigma) was added and incubated at 37° C. for 1 hour. Then, 100 μl/well of TMB solution (Biotechnology) was added. After incubation for 15 minutes at room temperature, the reaction was stopped by the addition of 50 μl of 1N HCl. OD 450 nm was read. […] The competition assay of format III is a competitive FACS assay. […] After washing, dye labeled anti-His 2nd antibody (Sigma) was added and incubated at 37° C. for 1 hour. Fluorescence intensity was detected.

Binder	EC50 [1] [nM]	EC50 [2] [nM]	binding result [3]	IC50 [4] [nM]	TOP blocking (%) [4] [%]	% competition [5] [%]	% competition [6] [%]	EC50 [7] [nM]	TOP MFI [7]	IC50 [8] [nM]	TOP blocking (%) [8] [%]	Blocking ratio at 66.7 nM (%) [9] [%]
Antibody 048 (antibody, V domains shown, mouse hybridoma antibody) VH: EFQVQQSGPELVKPGASVKISCKASGYSFSDYNMNWLKQSTGKSLEWIGLVDPIYGTIRYNQKFKGKATLTVDQSSSTAYMQLNSLTSEDSAVYYCALITTSVRYFDYWGQGTTLTVSS VL: DVLMTQTPLSLPVSLGDQASISCRSSQNIVHTDGNTYLEWYLQKPGQSPKLLIYKVSNRFSGVPDRFSGSGSGTDFTLKISRVEAEDLGVYYCFQGSHVPPTFGGGTKLEIK	0.05	1.19	no binding	7.6	92.9	10	41.7	–	–	–	–	–
035c (antibody, human IgG4, V domains shown, human IgG4 S228P / kappa chimeric antibody; also called chimeric antibody 035; not shown: human kappa light chain constant region (pcDNA3.4-hIgGk vector)) VH: QVQLQQSGAELARPGASVKLSCKASGYSFTSYGINWVKQRTGQGLEWIGEIYPRSGNTYYNEKFKDKATLTADKSSSTAYMELRSLTSEDSAVYFCARGGTYDGYYYAMDFWGQGTSVTVSS VL: DIVLTQSPASLAVSLGQRATISCRASESVDNFGSSFLHWYQQKPGQAPKLLIYRASNLESGIPARFSGSGSRTDFTLTINPVETDDVATYYCQQVNKDPRTFGGGTKLEIK	–	–	–	–	–	–	–	1.3	333	4.3	95.9	24.3

Continued, values first:

EC50 [1] [nM]	EC50 [2] [nM]	binding result [3]	IC50 [4] [nM]	TOP blocking (%) [4] [%]	% competition [5] [%]	% competition [6] [%]	EC50 [7] [nM]	TOP MFI [7]	IC50 [8] [nM]	TOP blocking (%) [8] [%]	Blocking ratio at 66.7 nM (%) [9] [%]	Binder
–	–	–	–	–	–	–	1.4	337	2.5	95.1	33.3	057c (antibody, human IgG4, V domains shown, human IgG4 S228P / kappa chimeric antibody; also called chimeric antibody 057; not shown: human kappa light chain constant region (pcDNA3.4-hIgGk vector)) VH: QVQLQQSGAELARPGASVKLSCKASGFSFTSYGINWVKQRTGQGLEWIGEIYPRSGNTYYNEKLKGEATLTADRSSSTAYMELRSLTSEDSAVYFCARGGTYDGYYYAMDYWGQGTSVTVSS VL: NIVLTQSPASLAVSLGQRATISCRASESVDNFGSSFMHWYQQKPGQAPKLLIYRASNLESGIPARFGGSGSGTDFTLTIDPVETDDVATYYCQQVNKDPRTFGGGTKLEIK
–	–	–	–	–	–	–	1.1	346	3.7	96.9	39.4	024c (antibody, human IgG4, V domains shown, human IgG4 S228P / kappa chimeric antibody; also called chimeric antibody 024; not shown: human kappa light chain constant region (pcDNA3.4-hIgGk vector)) VH: EVQLQQSGPELVKPGASVKISCKASGYTFTDYYMNWVKQSHGKRLEWIGDIDPNNGGTSYNQKFKGKATLTVDKSSSSAYMDLRSLTSEDSAVYYCARAGSYYYGSSYVEYFDVWGTGTTVTVSS VL: DIQMTQSPASLSASVGETVTITCRASGNIHNYLAWYQQKQGASPQLLVYNAKTLADGVPSRFSGSGSGTEFSLKINSLQPEDFGNYYCQHFWNTPYTFGGGTKLEIK
